Measured values: article PMC2955292 (Chemistry & biology, 2010)
Several values for one entry are separate records, joined by “and”; a condition that tells them apart may be missing. Equal values may be shown once.

Target: the molecule itself
Assay: AUC

B1: Escherichia coli ClpP (enzyme)
chain: not shown
- stoichiometry N: 14 and 7
